± gives the standard deviation of the averaged measurements.
Test system: Saccharomyces cerevisiae
Experiment: protein stability index of tFT-peptide fusion (C-terminal peptide) (PSI (0-1 scale)); higher = more stable (slower turnover)
Details: genetic background: wild type; temperature: 30 C
Experimental: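 Multiplexed protein stability (MPS) profiling in S. cerevisiae. Random 12-aa peptides (tFT-X12 library) are fused to the C-terminus of a sfGFP-mCherry tandem fluorescent timer, after mCherry and a GGGS linker. Cells are FACS-sorted into 8 mCherry/sfGFP bins and deep-sequenced. The protein stability index (PSI) is the read-weighted bin average, scaled from 0 (unstable) to 1 (stable). Only peptides with >10 reads are reported; cells were grown at 30 °C in SC-His with glucose.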
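Also: PSI is a weighted mean of sequencing reads over stability bins, variants kept only with over 10 reads, mCherry proximal and sfGFP distal, peptide attached via GGGS linker.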

Sequence	protein stability index
ATMGRKSLRDRF	0.679 ± 0.012
ATSCLPLPSCPG	0.726 ± 0.019
ATSSNFGVWVHV	0.69 ± 0.048
AVACGGASGCGC	0.707 ± 0.071
AVCWGGSVGGVG	0.69898 ± 0.00012
AVEGVSEVSLSG	0.656 ± 0.019
AVGQGAGSWGWE	0.691 ± 0.049
AVGRGGVGAEGA	0.65 ± 0.011
AVGWGGLKGRVG	0.7 ± 0.037
AVKMLGRGLVLV	0.624 ± 0.032
AVPLFRSVSRTS	0.667 ± 0.11
AVPSLYLLPFSF	0.69 ± 0.037
AVRFISRLPPPA	0.686 ± 0.078
AVSPISLSDNIG	0.664 ± 0.018
AVSRSLTGVRFL	0.697 ± 0.025
AVTAFDMGGSRN	0.672 ± 0.12
AVVSRVPRLFRL	0.724 ± 0.045
AVVYIRVEVPGA	0.498 ± 0.017
AVWLEAVSVSLS	0.612 ± 0.012
AVWRVSGPFTDA	0.685 ± 0.071
AVYSDCARNITW	0.714 ± 0.047
AWFIRSLVAYFL	0.545 ± 0.017
AWGLDGCQLCFS	0.751 ± 0.11
AYLNPFTSALTA	0.616 ± 0.028
AYTWVMTGAWLL	0.586 ± 0.015
CAAIHFLLPTYP	0.69 ± 0.054

Sequence	protein stability index
CAAYIQNLPFPF	0.727 ± 0.019
CAEGMCCCRGVG	0.56 ± 0.013
CAGGLFAVVTPS	0.682 ± 0.043
CARAGLGFRWVG	0.621 ± 0.031
CARPVLSAGSWQ	0.673 ± 0.065
CCFAGFAVWSVD	0.7 ± 0.019
CCLLYPAVYTTQ	0.62 ± 0.046
CCPLRLPRSRGY	0.705 ± 0.055
CCSWPSRLLLEG	0.722 ± 0.026
CCVVFMGLGGGR	0.673 ± 0.0085
CCYSSLRLMSFL	0.536 ± 0.014
CDDIIKGEIRIM	0.722 ± 0.041
CDFYGCAPAPRL	0.7945 ± 0.0077
CDHLSLCDDLFA	0.753 ± 0.065
CDQVSDGSMGTV	0.634 ± 0.04
CDTIPNPLYKYD	0.75 ± 0.055
CDYAWSSSASLG	0.56 ± 0.017
CECANLIAHFCV	0.6253 ± 0.0059
CECVGGFGFLGS	0.682 ± 0.031
CEITISQEQSAS	0.624 ± 0.022
CFGFRVFGFVFF	0.561 ± 0.075
CFGGGVGWFPLG	0.698 ± 0.0076
CFGSRDSSFGHT	0.763 ± 0.13
CFLIFQRSWLFR	0.576 ± 0.066
CFNGRVGGGGMR	0.636 ± 0.086
CFPALSSRTFPS	0.7521 ± 0.0047

Sequence	protein stability index
CFPPVGPTSPTI	0.745 ± 0.022
CFSFLEYCTSLP	0.704 ± 0.012
CGEGVCVTGWSR	0.68 ± 0.028
CGFGVSHASRIF	0.78 ± 0.012
CGGAKLPEQCQK	0.6813 ± 0.0022
CGLCDISFDLVM	0.626 ± 0.027
CGLSAGIVLFFC	0.58 ± 0.012
CGQEQGCEGAVD	0.658 ± 0.12
CGRERIEGGGGD	0.643 ± 0.1
CGRPPPLFAFIP	0.701 ± 0.037
CGTPWHSITCSA	0.55 ± 0.012
CGTYPTFCGLGV	0.68 ± 0.068
CGVCRGSCGGYG	0.583 ± 0.016
CGVCSAGIFVGG	0.761 ± 0.026
CGVFAGRVGVRV	0.6003 ± 0.0017
CGVMLFGLGCLW	0.6321 ± 0.00042
CGVSRIGLAGDV	0.671 ± 0.039
CGWIQYSVSHDL	0.712 ± 0.059
CHNVIEKIRNNK	0.657 ± 0.1
CHPFGLPFMLEF	0.721 ± 0.026
CHSIEGSEPREA	0.694 ± 0.085
CIATINKMTRRI	0.67 ± 0.11
CIRSRHRRQSKG	0.67 ± 0.088
CISPPRHAPPPP	0.637 ± 0.092
CKCKLNKKTTKS	0.701 ± 0.05
CKEGLGSGRWGR	0.717 ± 0.018

Sequence	protein stability index
CKKGVEIIEREK	0.632 ± 0.026
CLCLTCMLDFYL	0.553 ± 0.0092
CLEEVVCRVRGA	0.643 ± 0.0096
CLFPVSLPCPTN	0.714 ± 0.018
CLGPTVYGRSTF	0.728 ± 0.025
CLICLRSRMGDC	0.642 ± 0.024
CLIGYFPYRLVL	0.502 ± 0.025
CLLCLPPPRSLS	0.69 ± 0.034
CLPLFISPFLLG	0.677 ± 0.0068
CLPPPARLPAPR	0.683 ± 0.033
CLSGLIIMPSVG	0.675 ± 0.035
CLSPSSHLPSVT	0.685 ± 0.021
CLTGSVLVICGN	0.551 ± 0.06
CLVDSSSFSLIF	0.742 ± 0.065
CLVGWAVAVLGD	0.458 ± 0.068
CLVIDDPFLVPF	0.6988 ± 0.001
CLVRIIRREIKG	0.575 ± 0.018
CMCFFMGGWWCV	0.608 ± 0.0067
CMFPVSHRLLYL	0.615 ± 0.047
CMGRCGVCCERS	0.711 ± 0.045
CMWDAVGFALRS	0.72 ± 0.011
CPGNRQEMLKSR	0.676 ± 0.0083
CPLPTAFRSTHV	0.691 ± 0.019
CPRLDVSSGFSW	0.694 ± 0.025
CPTVLWPRSPRN	0.688 ± 0.027
CQPNRKRETRGN	0.732 ± 0.064

Sequence	protein stability index
CQSARCLPFLLY	0.585 ± 0.026
CQVTDYLVLDWG	0.727 ± 0.038
CQYKRRLKTTET	0.732 ± 0.0085
CRGPRASRRRGR	0.629 ± 0.04
CRHPYTSTTRLA	0.68 ± 0.025
CRKLSIPLRGQS	0.6627 ± 0.0044
CRQCKGTDGDDQ	0.673 ± 0.04
CRSGERSHKMLL	0.63 ± 0.011
CRSRRIVGPDSR	0.669 ± 0.015
CSAALTTLLDFA	0.715 ± 0.018
CSAVVPASARTP	0.606 ± 0.019
CSDRCHNLLLDA	0.705 ± 0.059
CSFFNSFPVFWL	0.7 ± 0.014
CSGRDLSLSMAD	0.744 ± 0.13
CSHPHPSSNLPS	0.683 ± 0.045
CSKERAPGPSSG	0.705 ± 0.075
CSLRVSADPLLT	0.7315 ± 0.0071
CSNGRKFKKDDA	0.682 ± 0.059
CSPLIISDATSR	0.713 ± 0.082
CSRGRNSDNNLI	0.631 ± 0.043
CSSLPSRPLLPH	0.7209 ± 0.0062
CSSSALADLLPW	0.6537 ± 0.0022
CSSSLLDSPPAL	0.703 ± 0.048
CSTYPLFPTLPP	0.693 ± 0.049
CTFSGLLEMAGR	0.7253 ± 0.0024
CTGSRPPPDCAV	0.646 ± 0.019

Sequence	protein stability index
CTHCAGVLLHTL	0.636 ± 0.044
CTKKNGYNGKNT	0.652 ± 0.025
CVARRPSLIGRN	0.655 ± 0.027
CVCLGCGGAFAG	0.696 ± 0.019
CVFAPLFYNVYA	0.585 ± 0.019
CVGILGAVKSGM	0.71 ± 0.098
CVIIDFTLCSVI	0.682 ± 0.14
CVLVVGGPAGGG	0.575 ± 0.063
CVMDKEYGYAIK	0.729 ± 0.0094
CVPFFSSSSPLI	0.812 ± 0.037
CVPLGCDWRGLI	0.6418 ± 0.0058
CVQGDGLSFYVL	0.737 ± 0.07
CVSALVADDLVS	0.674 ± 0.029
CVWSGHIWDLLF	0.764 ± 0.016
CYGVGTVGLRRG	0.712 ± 0.048
CYGYTESKNRLD	0.6524 ± 0.0046
CYKKRKKTNNYE	0.653 ± 0.02
CYLGSGFLFFLL	0.5209 ± 0.00091
CYRLFPLSSFIP	0.689 ± 0.085
DAKPNMATGLSI	0.703 ± 0.027
DAWPPVRTVVIN	0.656 ± 0.071
DCAVNYVGRRRR	0.702 ± 0.057
DDGQWVGFCGWT	0.749 ± 0.039
DDQLACSHDIDS	0.643 ± 0.019
DDQYVGRYYNKT	0.676 ± 0.019

Reference: the supplement of paper PMC10724198
